Patent publication US20190367620A1 (Merck KGaA, published 2019)

How the values were obtained:
[1] = target: T1, human FGFR1b-IIIc extracellular domain with a HIS tag (human, UniProt P11362 22-376); test: ELISA, EC50 from OD450 curves, monovalent SEEDbody format
T1 construct: also called huFGFR1b-IIIc; hFGFR1b-IIIc
T1 sequence: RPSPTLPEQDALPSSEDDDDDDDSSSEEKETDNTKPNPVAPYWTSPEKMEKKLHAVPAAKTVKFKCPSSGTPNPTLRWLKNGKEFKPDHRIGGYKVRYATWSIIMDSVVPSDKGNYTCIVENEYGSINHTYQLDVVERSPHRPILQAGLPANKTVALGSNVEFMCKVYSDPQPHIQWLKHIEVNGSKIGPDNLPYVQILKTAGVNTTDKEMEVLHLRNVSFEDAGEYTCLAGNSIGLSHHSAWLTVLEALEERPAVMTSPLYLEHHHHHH
Procedure: The binding selectivity of the antibodies were tested by ELISA against the different FGFR family members: FGFR1, FGFR2, FGFR3 and FGFR4. Briefly plates were coated overnight with the different His6-tagged FGFR proteins, after blocking with 1% Bovine Serum albumin, 1 or 0.1 μg/ml of anti-FGFR1 antibodies were incubated for 1 h at room temperature. After washing, the bound antibodies were incubated for 1 h at room temperature with a peroxidase affiniPure F(ab′)2 Fragment goat anti-human Fc (Jackson ImmunoResearch Laboratories #109-036-098) and detection was performed using the TMB HRP Substrate solution (BioFx Lab # TMBW-1000-01).
The antibody #A08 both as an IgG1 (bivalent) and as a SEEDbody (monovalent), was affinity matured using the yeast display technology described in (Rhiel et al. 2014) and performing light chain shuffling from immunized OmniRats and naïve human library followed by CDR-H3 parsimonious mutagenesis. Following several sorting rounds, yeast clones were picked, unique clones were reformatted as described in Examples 1.6 and 3.1. The binding affinities of the anti-FGFR1 molecules against human FGFR1b-IIIb) and human FGFR1b-IIIc) were measured by ELISA using a similar protocol as described in Example 1.9. The OD450 was plotted against the antibody concentration and GraphPad Prism software was used to calculate EC₅₀ values (see FIG. 10). […] The best results were obtained with mAb #A02 and #C01 showing an EC50 improvement in both IgG1 and SEEDbody formats.

[2] = target: T2, human FGFR1b-IIIb extracellular domain with a HIS tag (human); test: SPR (BIAcore), SEEDbody format; target IIIb by paragraph 74 and paragraph 125, the table's title says IIIc
T2 construct: also called huFGFR1b-IIIb; hFGFR1b-IIIb
T2 chain: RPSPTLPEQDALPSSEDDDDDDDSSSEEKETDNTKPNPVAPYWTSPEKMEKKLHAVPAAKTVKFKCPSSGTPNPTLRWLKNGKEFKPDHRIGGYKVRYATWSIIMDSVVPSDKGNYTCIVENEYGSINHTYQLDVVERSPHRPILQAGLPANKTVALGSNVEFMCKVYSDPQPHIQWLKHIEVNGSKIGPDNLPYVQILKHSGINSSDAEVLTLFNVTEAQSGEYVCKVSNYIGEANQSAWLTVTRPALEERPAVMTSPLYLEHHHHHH
Procedure: Binding affinities of anti-FGFR1 antibodies to FGFR1 were measured by Surface Plasmon Resonance (SPR) using a GE Healthcare BIAcore 4000 instrument as follows. Goat anti-human Fc antibody (Jackson ImmunoResearch Laboratories #109-005-098) was first immobilized on BIAcore carboxymethylated dextran CM5 chip using direct coupling to free amino groups following the procedure described by the manufacturer. Antibodies were then captured on the CM5 biosensor chip to achieve approximately 200 response units (RU). Binding measurements were performed using the running HBS-EP+ buffer. A 2-fold dilution series of His-tagged FGFR1 proteins were injected at a flow rate of 30 μl/min at 25° C. Association rates (kₒₙ, per mol/s) and dissociation rates (koff, per s) were calculated using a simple 1:1 Langmuir binding model (Biacore 4000 Evaluation Software). The equilibrium dissociation constant (KD, mol) was calculated as the ratio of koff/kₒₙ.
The affinities to human FGFR1b-IIIb for the affinity matured clones reformatted as IgG and monovalent SEEDbodies were measured by BIAcore (using a protocol similar to the one described in Example 1.8) and compared to those of mAb #08 (Table 5).

[3] = target: FGFR1 on NCI-H520 cells (human, UniProt P11362 22-822); test: cell-based or functional assay
Sequence of FGFR1 on NCI-H520 cells (P11362 22-822): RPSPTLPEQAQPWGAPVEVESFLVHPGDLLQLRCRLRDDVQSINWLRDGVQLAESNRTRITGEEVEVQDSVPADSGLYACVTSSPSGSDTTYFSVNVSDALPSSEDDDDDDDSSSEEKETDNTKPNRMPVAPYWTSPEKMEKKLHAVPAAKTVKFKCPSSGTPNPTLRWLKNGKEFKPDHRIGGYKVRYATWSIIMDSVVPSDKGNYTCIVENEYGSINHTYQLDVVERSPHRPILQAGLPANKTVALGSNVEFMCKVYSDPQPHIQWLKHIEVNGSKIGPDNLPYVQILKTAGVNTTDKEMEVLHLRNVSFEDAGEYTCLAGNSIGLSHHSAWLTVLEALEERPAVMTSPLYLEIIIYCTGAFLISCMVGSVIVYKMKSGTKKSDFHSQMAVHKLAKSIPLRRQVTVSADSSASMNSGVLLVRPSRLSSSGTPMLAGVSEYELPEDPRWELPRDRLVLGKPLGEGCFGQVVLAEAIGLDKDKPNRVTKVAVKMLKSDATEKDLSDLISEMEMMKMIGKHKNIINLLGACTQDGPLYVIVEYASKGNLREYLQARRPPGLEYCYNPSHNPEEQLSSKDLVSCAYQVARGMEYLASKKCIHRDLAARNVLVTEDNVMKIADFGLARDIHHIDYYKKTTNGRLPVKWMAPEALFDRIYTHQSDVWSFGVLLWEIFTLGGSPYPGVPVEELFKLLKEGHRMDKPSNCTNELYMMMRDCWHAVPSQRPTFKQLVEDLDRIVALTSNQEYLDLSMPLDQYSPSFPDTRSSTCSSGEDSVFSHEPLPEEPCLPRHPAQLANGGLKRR

B1: #A02 SEEDbody (monovalent) (antibody)
heavy: QVQLQESGPGLVKPSGTLSLTCAVSGGSISSNNWWSWVRQPPGKGLEWIGEIYHSGSTSYNPSLKSRVTISVDKSKNQFSLKLSSVTAADTAVYYCARATDWFDLWGQGTLVTVSSASTKGPSVFPLAPSSKSTSGGTAALGCLVKDYFPEPVTVSWNSGALTSGVHTFPAVLQSSGLYSLSSVVTVPSSSLGTQTYICNVNHKPSNTKVDKRVEPKSCDKTHTCPPCPAPELLGGPSVFLFPPKPKDTLMISRTPEVTCVVVDVSHEDPEVKFNWYVDGVEVHNAKTKPREEQYNSTYRVVSVLTVLHQDWLNGKEYKCKVSNKALPAPIEKTISKAKGQPFRPEVHLLPPSREEMTKNQVSLTCLARGFYPKDIAVEWESNGQPENNYKTTPSRQEPSQGTTTFAVTSKLTVDKSRWQQGNVFSCSVMHEALHNHYTQKTISLSPG
chain: EPKSSDKTHTCPPCPAPELLGGPSVFLFPPKPKDTLMISRTPEVTCVVVDVSHEDPEVKFNWYVDGVEVHNAKTKPREEQYNSTYRVVSVLTVLHQDWLNGKEYKCKVSNKALPAPIEKTISKAKGQPREPQVYTLPPPSEELALNELVTLTCLVKGFYPSDIAVEWLQGSQELPREKYLTWAPVLDSDGSFFLYSILRVAAEDWKKGDTFSCSVMHEALHNHYTQKSLDRSPG
light: SYVLTQPPSVSVAPGQTARITCGGNNIGSESVHWYQQKPGQAPVLVVYDDSDRPSGIPERFSGSNSGNTATLTISRVEAGDEADYYCQVWDSTSDHRVFGGGTKLTVLGQPKAAPSVTLFPPSSEELQANKATLVCLISDFYPGAVTVAWKADSSPVKAGVETTTPSKQSNNKYAASSYLSLTPEQWKSHKSYSCQVTHEGSTVEKTVAPTECS
notes: also called #A02-SEED(AG)
Does B1 bind [1]?
Result: binds

What about the Kd [2] of the same binder?
The Kd was 60 pM.

B2: #C01 SEEDbody (monovalent) (antibody)
heavy: QVQLQESGPGLVKPSGTLSLTCAVSGGSISSNNWWSWVRQPPGKGLEWIGEIYHSGSTSYNPSLKSRVTISVDKSKNQFSLKLSSVTAADTAVYYCARATDWFDAWGQGTLVTVSSASTKGPSVFPLAPSSKSTSGGTAALGCLVKDYFPEPVTVSWNSGALTSGVHTFPAVLQSSGLYSLSSVVTVPSSSLGTQTYICNVNHKPSNTKVDKRVEPKSCDKTHTCPPCPAPELLGGPSVFLFPPKPKDTLMISRTPEVTCVVVDVSHEDPEVKFNWYVDGVEVHNAKTKPREEQYNSTYRVVSVLTVLHQDWLNGKEYKCKVSNKALPAPIEKTISKAKGQPFRPEVHLLPPSREEMTKNQVSLTCLARGFYPKDIAVEWESNGQPENNYKTTPSRQEPSQGTTTFAVTSKLTVDKSRWQQGNVFSCSVMHEALHNHYTQKTISLSPG
chain: EPKSSDKTHTCPPCPAPELLGGPSVFLFPPKPKDTLMISRTPEVTCVVVDVSHEDPEVKFNWYVDGVEVHNAKTKPREEQYNSTYRVVSVLTVLHQDWLNGKEYKCKVSNKALPAPIEKTISKAKGQPREPQVYTLPPPSEELALNELVTLTCLVKGFYPSDIAVEWLQGSQELPREKYLTWAPVLDSDGSFFLYSILRVAAEDWKKGDTFSCSVMHEALHNHYTQKSLDRSPG
light: SYVLTQPPSVSVAPGQTARITCGGNNIGSESVHWYQQKPGQAPVLVVYDDSDRPSGIPERFSGSNSGNTATLTISRVEAGDEADYYCQVWDSTSDHRVFGGGTKLTVLGQPKAAPSVTLFPPSSEELQANKATLVCLISDFYPGAVTVAWKADSSPVKAGVETTTPSKQSNNKYAASSYLSLTPEQWKSHKSYSCQVTHEGSTVEKTVAPTECS
notes: also called #C01-SEED(AG)
Does B2 bind [1]?
Result: binds

What about the Kd [2] of the same binder?
Its Kd is 40 pM.

B3: monovalent SEEDbody #A08 (antibody)
heavy: EVQLQESGPGLVKPSGTLSLTCAVSGGSISSNNWWSWVRQPPGKGLEWIGEIYHSGSTSYNPSLKSRVTISVDKSKNQFSLKLSSVTAADTAVYYCARGTDWFDPWGQGTLVTVSSASTKGPSVFPLAPSSKSTSGGTAALGCLVKDYFPEPVTVSWNSGALTSGVHTFPAVLQSSGLYSLSSVVTVPSSSLGTQTYICNVNHKPSNTKVDKRVEPKSCDKTHTCPPCPAPELLGGPSVFLFPPKPKDTLMISRTPEVTCVVVDVSHEDPEVKFNWYVDGVEVHNAKTKPREEQYNSTYRVVSVLTVLHQDWLNGKEYKCKVSNKALPAPIEKTISKAKGQPFRPEVHLLPPSREEMTKNQVSLTCLARGFYPKDIAVEWESNGQPENNYKTTPSRQEPSQGTTTFAVTSKLTVDKSRWQQGNVFSCSVMHEALHNHYTQKTISLSPG
chain: EPKSSDKTHTCPPCPAPELLGGPSVFLFPPKPKDTLMISRTPEVTCVVVDVSHEDPEVKFNWYVDGVEVHNAKTKPREEQYNSTYRVVSVLTVLHQDWLNGKEYKCKVSNKALPAPIEKTISKAKGQPREPQVYTLPPPSEELALNELVTLTCLVKGFYPSDIAVEWLQGSQELPREKYLTWAPVLDSDGSFFLYSILRVAAEDWKKGDTFSCSVMHEALHNHYTQKSLDRSPG
light: SYVLTQPPSVSVAPGQTARITCGGNNIGSESVHWYQQKPGQAPVLVVYDDSDRPSGIPERFSGSNSGNTATLTISRVEAGDEADYYCQVWDSTSDHRVFGGGTKLTVLGQPKAAPSVTLFPPSSEELQANKATLVCLISDFYPGAVTVAWKADSSPVKAGVETTTPSKQSNNKYAASSYLSLTPEQWKSHKSYSCQVTHEGSTVEKTVAPTECS
notes: One-armed SEEDbody: full SEED(AG) heavy chain, partial hinge-CH2-CH3 SEED(GA) chain, lambda light chain; produced in CHO-LF cells (afucosylated); also called anti-FGFR1 SEEDbody; #A08 SEEDbody
How did the Kd [2] turn out when B3 was run?
The Kd was 80 pM.

And the “IC50, pFGFR1 inhibition in NCI-H520 cells, FGF1, SEEDbody” value [3]?
The value was 7e-08 M.

And the “IC50, pFGFR1 inhibition in NCI-H520 cells, FGF2, SEEDbody” value [3]?
The value was 6e-09 M.

What about the “IC50, pFGFR1 inhibition in NCI-H520 cells, non-stimulated, SEEDbody” value [3] of the same binder?
Its value is 2e-08 M.

B4: #B10 SEEDbody (monovalent) (antibody)
heavy: QVQLQESGPGLVKPSGTLSLTCAVSGGSISSNNWWSWVRQPPGKGLEWIGEIYHSGSTSYNPSLKSRVTISVDKSKNQFSLKLSSVTAADTAVYYCARATDWYDPWGQGTLVTVSSASTKGPSVFPLAPSSKSTSGGTAALGCLVKDYFPEPVTVSWNSGALTSGVHTFPAVLQSSGLYSLSSVVTVPSSSLGTQTYICNVNHKPSNTKVDKRVEPKSCDKTHTCPPCPAPELLGGPSVFLFPPKPKDTLMISRTPEVTCVVVDVSHEDPEVKFNWYVDGVEVHNAKTKPREEQYNSTYRVVSVLTVLHQDWLNGKEYKCKVSNKALPAPIEKTISKAKGQPFRPEVHLLPPSREEMTKNQVSLTCLARGFYPKDIAVEWESNGQPENNYKTTPSRQEPSQGTTTFAVTSKLTVDKSRWQQGNVFSCSVMHEALHNHYTQKTISLSPG
chain: EPKSSDKTHTCPPCPAPELLGGPSVFLFPPKPKDTLMISRTPEVTCVVVDVSHEDPEVKFNWYVDGVEVHNAKTKPREEQYNSTYRVVSVLTVLHQDWLNGKEYKCKVSNKALPAPIEKTISKAKGQPREPQVYTLPPPSEELALNELVTLTCLVKGFYPSDIAVEWLQGSQELPREKYLTWAPVLDSDGSFFLYSILRVAAEDWKKGDTFSCSVMHEALHNHYTQKSLDRSPG
light: SYVLTQPPSVSVAPGQTARITCGGNNIGSESVHWYQQKPGQAPVLVVYDDSDRPSGIPERFSGSNSGNTATLTISRVEAGDEADYYCQVWDSTSDHRVFGGGTKLTVLGQPKAAPSVTLFPPSSEELQANKATLVCLISDFYPGAVTVAWKADSSPVKAGVETTTPSKQSNNKYAASSYLSLTPEQWKSHKSYSCQVTHEGSTVEKTVAPTECS
notes: also called #B10-SEED(AG)
Does B4 bind [1]?
Result: binds

What about the Kd [2] of the same binder?
Its Kd is 20 pM.

B5: A05 SEEDbody (monovalent) (antibody, V domains shown)
VH: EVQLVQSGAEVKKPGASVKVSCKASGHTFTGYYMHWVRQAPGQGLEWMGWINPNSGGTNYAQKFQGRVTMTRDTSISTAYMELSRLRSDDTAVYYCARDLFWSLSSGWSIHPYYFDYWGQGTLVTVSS
VL: QSALTQPASVSGSPGQSITISCTGTSSDVGSYNLVSWYQQHPGKAPKLMIYGGSKRPSGVPDRFSGSKSGNTASLTISGLQAEDEADYYCSSYTYSGDVFGTGTKVTVL
B5 was tested. Which “IC50, pFGFR1 inhibition in NCI-H520 cells, FGF1, SEEDbody” value [3] did it give?
Its value is > 1e-06 M.

And the “IC50, pFGFR1 inhibition in NCI-H520 cells, FGF2, SEEDbody” value [3]?
The value was 4e-07 M.

What about the “IC50, pFGFR1 inhibition in NCI-H520 cells, non-stimulated, SEEDbody” value [3] of the same binder?
Its value is > 1e-06 M.
